According to the supplement of paper PMC7877785:
± gives the uncertainty stated by the source.

Experiment: self-splicing fitness, log relative to wild type (ln ratio); higher = more splicing; Tetrahymena group I intron in knt gene, E. coli kanamycin selection, DiMSum; sequences stand for … in CUCUCU…GGAGGGAAAAGUUAUCAGGCAUGCACCUGGUAGCUAGUCUUUAAACCAAUAGAUUGCAUCGGUUUAAAAGGCAAGACCGUCAAAUUGCGGGAAAGGGGUCAACAGCCGUUCAGUACCAAGUCUCAGGGGAAACUUUGAGAUGGCCUUGCAAAGGGUAUGGUAAUAAGCUGACGGACAUGGUCCUAACCACGCAGCCAAGUCCUAAGUCAACAGAUCUUCUGUUGAUAUGGAUGCAGUUCACAGACUAAAUGUCGGUCGGGGAAGAUGUAUUCUUCUCAUAAGAUAUAGUCGGACCUCUCCUUAAUGGGAGCUAGCGGAUGAAGUGAUGCAACACUGGAGCCGCUGGGAACUAAUUUGUAUGCGAAAGUAUAUUGAUUAGUUUUGGAGUACUCGUGGUCG
Method in brief: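 Fitness was computed with DiMSum as the error-weighted combination of replicate fold changes, kanamycin versus none, each normalised to wild type. The library randomised all eight intron nucleotides of the P1ex region, with the intron placed in the knt kanamycin-resistance gene on pET-22b(+) in E. coli BL21(DE3). Six replicate transformations were grown overnight at 37°C or 30°C on LB agar with or without 25 μg/mL kanamycin, plus 100 μg/mL carbenicillin, 50 μM IPTG and 0.2% rhamnose. Pooled colonies were amplicon-sequenced on an Illumina HiSeq 2500.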

Row | Sequence | self-splicing fitness (ln) (30 °C) | self-splicing fitness (ln) (37 °C)
1 | UGGUAGCAAUAUUACGUAUA | -1.51 ± 0.14 | -0.00881 ± 0.14
2 | AGGUAGCAAUAUUACGAAUA | -2.28 ± 0.026 | -1.51 ± 0.037
3 | CGUGAGCAAUAUUACGACAA |  | -3.33 ± 0.25
4 | GACGAGCAAUAUUACGCUUU | -3.17 ± 0.46 | -0.0656 ± 0.19
5 | AGAGAGCAAUAUUACGGUUC | -4.09 ± 0.37 | -2.11 ± 0.29
6 | AUCGAGCAAUAUUACGGUUC | -2.93 ± 0.24 | 
7 | GAGAAGCAAUAUUACGUGCA | -0.762 ± 0.084 | -0.666 ± 0.094
8 | AUUCAGCAAUAUUACGUUCC | -1.54 ± 0.14 | -1.5 ± 0.21
9 | UGCAAGCAAUAUUACGCCGA | -1.38 ± 0.15 | -0.485 ± 0.14
10 | UUACAGCAAUAUUACGGCAG | -0.142 ± 0.077 | 0.248 ± 0.11
11 | GGGAAGCAAUAUUACGAAUG |  | -0.92 ± 0.34
12 | GGCUAGCAAUAUUACGACCA | -1.49 ± 0.3 | -1.43 ± 0.31
13 | AGCUAGCAAUAUUACGUACU | -0.454 ± 0.095 | -0.144 ± 0.12
14 | CCCCAGCAAUAUUACGAGCA | -1.5 ± 0.14 | -3.13 ± 0.34
15 | CUGGAGCAAUAUUACGUGAU | -2.53 ± 0.076 | -1.18 ± 0.078
16 | AACGAGCAAUAUUACGGUGG | -3.68 ± 0.32 | -2.05 ± 0.34
17 | AGUGAGCAAUAUUACGUAGC | -1.99 ± 0.14 | -3.39 ± 0.39
18 | CGCCAGCAAUAUUACGGUCU | -0.989 ± 0.061 | -0.324 ± 0.076
19 | GGUAAGCAAUAUUACGAACU | -1.25 ± 0.25 | -1.67 ± 0.36
20 | GAUCAGCAAUAUUACGGGUG | -0.356 ± 0.081 | -0.245 ± 0.094
21 | CAACAGCAAUAUUACGGUAA | -1.71 ± 0.089 | -1.61 ± 0.094
22 | GAGUAGCAAUAUUACGACCG | -3.1 ± 0.39 | -0.977 ± 0.37
23 | UACUAGCAAUAUUACGACCU | -2.01 ± 0.13 | -0.83 ± 0.15
24 | UAUCAGCAAUAUUACGUAGU | -1.87 ± 0.086 | -1.19 ± 0.08
25 | AAGUAGCAAUAUUACGCUCA | -0.287 ± 0.076 | 0.5 ± 0.094
26 | AGCGAGCAAUAUUACGUUAG | -2.38 ± 0.11 | -3.18 ± 0.27

Row | Sequence | self-splicing fitness (ln) (30 °C) | self-splicing fitness (ln) (37 °C)
27 | GAGCAGCAAUAUUACGGGGA | -2.84 ± 0.21 | -2.05 ± 0.14
28 | AGUCAGCAAUAUUACGGGAG | -3.52 ± 0.15 | -1.41 ± 0.11
29 | AUGUAGCAAUAUUACGCGAG | -1.71 ± 0.13 | -0.706 ± 0.13
30 | GCGCAGCAAUAUUACGCGUA | -1.14 ± 0.082 | -1.39 ± 0.083
31 | GCUGAGCAAUAUUACGUGUC | -2.78 ± 0.18 | -1.3 ± 0.16
32 | AGAUAGCAAUAUUACGAGAG | -3.7 ± 0.29 | -2.37 ± 0.25
33 | CACGAGCAAUAUUACGCGAU | -3.23 ± 0.21 | -2.51 ± 0.41
34 | UACAAGCAAUAUUACGAGUG | -1.35 ± 0.064 | -0.768 ± 0.071
35 | AUGAAGCAAUAUUACGUGGC | -3.92 ± 0.25 | -2.56 ± 0.31
36 | AAGAAGCAAUAUUACGCGUU | -2.74 ± 0.11 | -1.32 ± 0.11
37 | GUGAAGCAAUAUUACGCACC |  | -1.92 ± 0.34
38 | UGAUAGCAAUAUUACGGUAU | -3.75 ± 0.22 | -1.92 ± 0.18
39 | AGUUAGCAAUAUUACGGGAC | -3.33 ± 0.26 | -0.241 ± 0.12
40 | GAGGAGCAAUAUUACGUGCG | -2.06 ± 0.15 | -1.39 ± 0.17
41 | CCACAGCAAUAUUACGACUU | -4 ± 0.28 | -2.81 ± 0.27
42 | UUAUAGCAAUAUUACGCGCU | -2.25 ± 0.14 | -1.55 ± 0.13
43 | GAGCAGCAAUAUUACGCGCC | -3.87 ± 0.28 | -3.17 ± 0.35
44 | GAGUAGCAAUAUUACGCCAC | -3.64 ± 0.28 | -0.452 ± 0.21
45 | ACGUAGCAAUAUUACGCAAA | -1.78 ± 0.21 | -2.42 ± 0.3
46 | UGAAAGCAAUAUUACGCGUU | -3.19 ± 0.19 | -3.1 ± 0.29
47 | UUUAAGCAAUAUUACGAUUC | -2.23 ± 0.23 | -0.889 ± 0.19
48 | UCAAAGCAAUAUUACGCACU | -2.08 ± 0.11 | -2.5 ± 0.22
49 | UCUCAGCAAUAUUACGCGCC | -3.46 ± 0.25 | -1.25 ± 0.19
50 | UGAAAGCAAUAUUACGGGAG | -1.49 ± 0.12 | -0.515 ± 0.12
51 | AUCGAGCAAUAUUACGGCGC | -1.38 ± 0.091 | -0.856 ± 0.13
52 | UAAAAGCAAUAUUACGCGAA | -2.23 ± 0.12 | -0.719 ± 0.12

Row | Sequence | self-splicing fitness (ln) (30 °C) | self-splicing fitness (ln) (37 °C)
53 | UCGAAGCAAUAUUACGAGCG | -1.04 ± 0.078 | -0.114 ± 0.094
54 | GAGUAGCAAUAUUACGCAUG | -0.973 ± 0.29 | -0.606 ± 0.47
55 | CACAAGCAAUAUUACGUUUC | -3.53 ± 0.19 | -1.8 ± 0.17
56 | GAGUAGCAAUAUUACGUGAC | -1.42 ± 0.22 | -1.89 ± 0.39
57 | GUGAAGCAAUAUUACGUGCC | -1.92 ± 0.32 | -1.32 ± 0.36
58 | CAUUAGCAAUAUUACGGCAC | -4.19 ± 0.46 | -1.1 ± 0.17
59 | GGGAAGCAAUAUUACGCUGC | -2.83 ± 0.48 | 
60 | AGGUAGCAAUAUUACGGCGU | -0.0406 ± 0.013 | 0.231 ± 0.033
61 | CAUUAGCAAUAUUACGGUUU | -3.82 ± 0.2 | -2.68 ± 0.2
62 | AGUCAGCAAUAUUACGCAUC | -1.32 ± 0.1 | -0.329 ± 0.12
63 | UGCUAGCAAUAUUACGGCUC | -1.4 ± 0.2 | -1.33 ± 0.23
64 | CUGUAGCAAUAUUACGUGGA | -3.85 ± 0.28 | -4.32 ± 0.42
65 | CGGUAGCAAUAUUACGUACA | -1.51 ± 0.14 | -0.643 ± 0.19
66 | CGACAGCAAUAUUACGGUUG | -3.3 ± 0.13 | -2.84 ± 0.18
67 | CUUCAGCAAUAUUACGGAAU | -1.46 ± 0.13 | -1.17 ± 0.14
68 | AGGGAGCAAUAUUACGACCU | -4.11 ± 0.33 | -1.67 ± 0.25
69 | CCUGAGCAAUAUUACGAGAU | -1.86 ± 0.16 | -2.09 ± 0.23
70 | CUCCAGCAAUAUUACGUAGA | -3.31 ± 0.15 | -2.58 ± 0.16
71 | CUACAGCAAUAUUACGUUAU | -3.96 ± 0.13 | -2.79 ± 0.15
72 | CGCGAGCAAUAUUACGUAGU | -3.92 ± 0.18 | -2.14 ± 0.16
73 | AUGCAGCAAUAUUACGGCUG | -2.78 ± 0.15 | -1.68 ± 0.23
74 | GCCGAGCAAUAUUACGAUCG | -2.36 ± 0.26 | 
75 | CAGGAGCAAUAUUACGGCCU | -2.22 ± 0.24 | -1.42 ± 0.31
76 | UUUUAGCAAUAUUACGGCUA | -2.21 ± 0.44 | -0.365 ± 0.31
77 | AGUGAGCAAUAUUACGGCGU | -1.08 ± 0.071 | -0.465 ± 0.084
78 | CAAAAGCAAUAUUACGUUAA | -2.65 ± 0.16 | -2.06 ± 0.12
